In PMC6755811:

Key:
[1] = biological target: HER2-binding monomeric IgA1 with heterogeneous complex N-glycans, produced in HEK293F cells (human); assay: ITC; 10 μM IgA in the sample cell titrated with 160 μM FcαRI; 25 °C; PBS, pH 7.4
[2] = biological target: HER2-binding monomeric IgA2m(2) with complex N-glycans (human); assay: as above
[3] = biological target: HEK293F-produced IgA1-Fc deletion protein lacking the Fab domain (human); assay: SEC-MALS; SE-HPLC-MALS, Superdex 200 10/300 GL; IgA mixed with the receptor in a molar ratio of 1:4 starting from 25 μg of IgA
[4] = biological target: HER2-binding monomeric IgA1 with mostly biantennary GlcNAc2Man3GlcNAc2 (GnGn) complex N-glycans (human); assay: as above
[5] = biological target: HER2-binding monomeric IgA2m(2) with heterogeneous complex N-glycans (human); assay: ITC; 10 μM IgA in the cell titrated with 160 μM FcαRI from the syringe; PBS pH 7.4, 25 °C, 19 injections
[6] = biological target: HER2-binding monomeric IgA1 with Man3GlcNAc2 (MM) N-glycans (human); assay: SPR; Biacore T200; IgA glycoforms captured on a Protein L chip, FcαRI glycoforms injected in single-cycle kinetics at five concentrations (31.5 to 500 nM); 1x PBS, 0.05% Tween, 0.1% BSA; 1:1 binding model; average of four independent experiments
[7] = biological target: HER2-binding monomeric IgA1 with terminally sialylated (NaNa) N-glycans (human); assay: as above
[8] = biological target: HER2-binding monomeric IgA2m(2) with Man3GlcNAc2 (MM) N-glycans (human); assay: as above
[9] = biological target: HER2-binding monomeric IgA2m(2) with sialylated (NaNa) N-glycans (human); assay: as above

HEK293F-produced IgA1-Fc deletion protein lacking the Fab domain (human), sequence (P01876 1-364, stated change not applied): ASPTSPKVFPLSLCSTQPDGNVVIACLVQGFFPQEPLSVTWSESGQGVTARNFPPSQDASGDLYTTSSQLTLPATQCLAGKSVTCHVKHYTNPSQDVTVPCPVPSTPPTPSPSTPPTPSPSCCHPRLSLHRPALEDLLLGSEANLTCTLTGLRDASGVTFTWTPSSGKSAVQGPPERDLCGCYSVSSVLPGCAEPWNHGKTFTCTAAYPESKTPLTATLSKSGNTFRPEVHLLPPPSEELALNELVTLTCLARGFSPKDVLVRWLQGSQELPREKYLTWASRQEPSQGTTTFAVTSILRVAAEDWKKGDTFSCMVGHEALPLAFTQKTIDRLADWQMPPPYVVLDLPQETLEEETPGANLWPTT

Substance: extracellular domain of the human FcαRI (CD89) with complex sialylated N-glycans (from UniProt P24071 22-227) (receptor)
- stoichiometry N (FcαRI per IgA) [1]: 1.3
- stoichiometry N (FcαRI per IgA) [2]: 1.3
- stoichiometry N (FcαRI per IgA1-Fc) [3]: 1
- stoichiometry N (FcαRI per IgA) [4]: 1

Substance: extracellular domain of human FcαRI (CD89) with complex sialylated N-glycans (from UniProt P24071 22-227) (receptor)
- Kd [5]: 161 nM
- stoichiometry N [5]: 1.33
- Kd [6]: 187 nM
- koff [6]: 0.07 s⁻¹
- kon [6]: 350000 M⁻¹ s⁻¹
- Kd [7]: 149 nM
- koff [7]: 0.07 s⁻¹
- kon [7]: 520000 M⁻¹ s⁻¹
- Kd [8]: 225 nM
- koff [8]: 0.06 s⁻¹
- kon [8]: 280000 M⁻¹ s⁻¹
- Kd [9]: 206 nM
- koff [9]: 0.06 s⁻¹
- kon [9]: 300000 M⁻¹ s⁻¹

Substance: extracellular domain of the human FcαRI with oligomannosidic N-glycans (from UniProt P24071 22-227) (receptor)
- stoichiometry N (FcαRI per IgA) [1]: 1.3
- stoichiometry N (FcαRI per IgA) [2]: 1.3

Substance: extracellular domain of human FcαRI with oligomannosidic N-glycans (from UniProt P24071 22-227) (receptor)
- Kd [5]: 90.7 nM
- stoichiometry N [5]: 1.36

Substance: extracellular domain of human FcαRI with single GlcNAc residues at each N-glycosylation site (from UniProt P24071 22-227) (receptor)
- Kd [6]: 25.2 nM
- koff [6]: 0.05 s⁻¹
- kon [6]: 1.9e+06 M⁻¹ s⁻¹
- Kd [7]: 25.8 nM
- koff [7]: 0.06 s⁻¹
- kon [7]: 2.3e+06 M⁻¹ s⁻¹
- Kd [8]: 26.2 nM
- koff [8]: 0.03 s⁻¹
- kon [8]: 1.2e+06 M⁻¹ s⁻¹
- Kd [9]: 25.2 nM
- koff [9]: 0.03 s⁻¹
- kon [9]: 1.3e+06 M⁻¹ s⁻¹
